This passage reports Kd and Km(MT) of MT-activated steady-state ATPase, untreated dynein, 1 mM ATP, 25 °C results from publication PMC2757048.

Experiment [1] has as its target paclitaxel-stabilized microtubules (UniProt P02550). In words: co-sedimentation.
Experiment [2] shares this target. In words: co-sedimentation. The source holds these as a separate data set.
Experiment [3] has the same target. In words: co-sedimentation. This is another data set of the same source.
For experiment [4] the target is unchanged.

Read-outs that look alike come from different tables or passages of the source.

Chain of UniProt P02550 (P02550 whole entry, chain 1 of 2): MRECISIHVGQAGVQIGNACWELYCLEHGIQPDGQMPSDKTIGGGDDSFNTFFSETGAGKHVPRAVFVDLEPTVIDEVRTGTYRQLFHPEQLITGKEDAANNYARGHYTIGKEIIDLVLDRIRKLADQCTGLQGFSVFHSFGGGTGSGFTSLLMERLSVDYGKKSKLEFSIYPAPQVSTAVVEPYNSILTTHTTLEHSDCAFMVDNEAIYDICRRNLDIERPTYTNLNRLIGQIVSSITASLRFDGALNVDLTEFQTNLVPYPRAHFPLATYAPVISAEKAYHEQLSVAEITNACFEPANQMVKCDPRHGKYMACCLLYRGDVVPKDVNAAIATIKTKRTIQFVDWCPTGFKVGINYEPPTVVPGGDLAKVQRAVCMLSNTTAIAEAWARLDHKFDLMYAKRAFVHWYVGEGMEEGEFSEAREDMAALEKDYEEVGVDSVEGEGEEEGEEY
Chain of UniProt P02550 (P02554 whole entry, chain 2 of 2, further chain): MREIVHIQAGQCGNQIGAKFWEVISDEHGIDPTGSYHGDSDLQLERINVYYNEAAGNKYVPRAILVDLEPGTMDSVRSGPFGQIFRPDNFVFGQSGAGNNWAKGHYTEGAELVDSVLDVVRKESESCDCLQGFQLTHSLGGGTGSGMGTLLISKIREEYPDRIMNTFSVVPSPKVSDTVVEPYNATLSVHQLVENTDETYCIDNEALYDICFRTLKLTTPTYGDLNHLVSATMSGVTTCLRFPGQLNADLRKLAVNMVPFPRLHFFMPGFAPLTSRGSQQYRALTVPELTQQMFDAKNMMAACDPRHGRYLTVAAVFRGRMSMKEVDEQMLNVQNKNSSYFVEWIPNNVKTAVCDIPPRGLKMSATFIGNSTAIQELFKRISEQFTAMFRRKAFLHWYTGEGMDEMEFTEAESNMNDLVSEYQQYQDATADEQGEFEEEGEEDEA

The Kd is the free concentration of one partner at which half of the binding sites on the other are occupied at equilibrium, for simple one-to-one binding. For the substance “HFG380 L3339C Q3510C double-Cys mutant, oxidized (stalk coiled coil locked in the +β registry), P34036 1388-4730”, the Kd in experiment [1] and in experiment [2] was greater than 10 µM each time.

Regarding “HFG380 L3339C I3517C double-Cys mutant, oxidized (stalk coiled coil locked in the −β registry), P34036 1388-4730”, the Kd in experiment [1] and in experiment [2] was greater than 10 µM in each case.

In the case of “HFG380 L3339C Q3510C double-Cys mutant, untreated, P34036 1388-4730”, the Kd in experiment [1] was greater than 10 µM; in experiment [3], 610 nM. In addition, in experiment [4], the Km(MT) of MT-activated steady-state ATPase, untreated dynein, 1 mM ATP, 25 °C stood at 40.5 µM.

For the substance “HFG380 L3339C I3517C double-Cys mutant, untreated, P34036 1388-4730”, the Kd in experiment [1] is greater than 10 µM. In addition, the Km(MT) of MT-activated steady-state ATPase, untreated dynein, 1 mM ATP, 25 °C in experiment [4] was 26.6 µM.

With “HFG380 Q3340C I3513C double-Cys mutant, untreated, P34036 1388-4730”, the Kd in experiment [1] was greater than 10 µM; in experiment [3], 650 nM. For the same substance, the Km(MT) of MT-activated steady-state ATPase, untreated dynein, 1 mM ATP, 25 °C in experiment [4] was determined as 14.5 µM.
